From the supplement of paper PMC7877785
± gives the uncertainty stated by the source.

Assay: self-splicing fitness, log relative to wild type (ln ratio); higher = more splicing; Tetrahymena group I intron in knt gene, E. coli kanamycin selection, DiMSum; sequences stand for … in CUCUCU…GGAGGGAAAAGUUAUCAGGCAUGCACCUGGUAGCUAGUCUUUAAACCAAUAGAUUGCAUCGGUUUAAAAGGCAAGACCGUCAAAUUGCGGGAAAGGGGUCAACAGCCGUUCAGUACCAAGUCUCAGGGGAAACUUUGAGAUGGCCUUGCAAAGGGUAUGGUAAUAAGCUGACGGACAUGGUCCUAACCACGCAGCCAAGUCCUAAGUCAACAGAUCUUCUGUUGAUAUGGAUGCAGUUCACAGACUAAAUGUCGGUCGGGGAAGAUGUAUUCUUCUCAUAAGAUAUAGUCGGACCUCUCCUUAAUGGGAGCUAGCGGAUGAAGUGAUGCAACACUGGAGCCGCUGGGAACUAAUUUGUAUGCGAAAGUAUAUUGAUUAGUUUUGGAGUACUCGUGGUCG
Outline: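 Fitness was computed with DiMSum as the error-weighted combination of replicate fold changes, kanamycin versus none, each normalised to wild type. The library randomised all eight intron nucleotides of the P1ex region, with the intron placed in the knt kanamycin-resistance gene on pET-22b(+) in E. coli BL21(DE3). Six replicate transformations were grown overnight at 37°C or 30°C on LB agar with or without 25 μg/mL kanamycin, plus 100 μg/mL carbenicillin, 50 μM IPTG and 0.2% rhamnose. Pooled colonies were amplicon-sequenced on an Illumina HiSeq 2500.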

Sequence	self-splicing fitness (ln) (30 °C)	self-splicing fitness (ln) (37 °C)
GGUAAGCAAUAUUACGGCCG	-0.712 ± 0.12	-0.544 ± 0.17
GGUAAGCAAUAUUACGGCUU	-0.104 ± 0.075	0.352 ± 0.11
GGUAAGCAAUAUUACGGUCU	0.187 ± 0.083	-0.0802 ± 0.087
GGUAAGCAAUAUUACGUAAC	-1.86 ± 0.13	-0.278 ± 0.15
GGUAAGCAAUAUUACGUAAU	-1.21 ± 0.096	-0.781 ± 0.12
GGUAAGCAAUAUUACGUACA	-0.648 ± 0.1	0.294 ± 0.14
GGUAAGCAAUAUUACGUAGG	-2.78 ± 0.19	-3.5 ± 0.28
GGUAAGCAAUAUUACGUCUC	-1.04 ± 0.13	-1.27 ± 0.16
GGUAAGCAAUAUUACGUCUG	-1.85 ± 0.14	-1.51 ± 0.1
GGUAAGCAAUAUUACGUUUC	-3.52 ± 0.27	0.249 ± 0.15
GGUCAGCAAUAUUACGAACA	-0.818 ± 0.14	-0.749 ± 0.17
GGUCAGCAAUAUUACGACAA	-0.264 ± 0.062	0.179 ± 0.093
GGUCAGCAAUAUUACGACCG	-1.89 ± 0.17	-1.26 ± 0.19
GGUCAGCAAUAUUACGAGAC	-2.27 ± 0.23	-1.29 ± 0.31
GGUCAGCAAUAUUACGAGGA		-1.73 ± 0.36
GGUCAGCAAUAUUACGAUUC	-0.716 ± 0.079	-0.325 ± 0.11
GGUCAGCAAUAUUACGCAUC	-0.704 ± 0.091	-0.125 ± 0.1
GGUCAGCAAUAUUACGCCAU	-3.36 ± 0.3	-0.853 ± 0.17
GGUCAGCAAUAUUACGCGCA	-0.219 ± 0.13	-0.27 ± 0.12
GGUCAGCAAUAUUACGCGUU	-0.112 ± 0.084	0.0966 ± 0.13
GGUCAGCAAUAUUACGCUCG	-0.0238 ± 0.095	0.341 ± 0.12
GGUCAGCAAUAUUACGCUCU	-1.58 ± 0.2	0.397 ± 0.34
GGUCAGCAAUAUUACGCUUG	-0.955 ± 0.07	-0.556 ± 0.096
GGUCAGCAAUAUUACGGAUC	-2.95 ± 0.22	-0.0513 ± 0.21

Sequence	self-splicing fitness (ln) (30 °C)	self-splicing fitness (ln) (37 °C)
GGUCAGCAAUAUUACGGCAC	-0.775 ± 0.13	0.566 ± 0.16
GGUCAGCAAUAUUACGGCCU	-2.84 ± 0.29	-2.34 ± 0.45
GGUCAGCAAUAUUACGGGAC	-1.72 ± 0.15	-2.96 ± 0.4
GGUCAGCAAUAUUACGGGUA	-1.57 ± 0.12	-0.686 ± 0.1
GGUCAGCAAUAUUACGGUAC	0.214 ± 0.15	0.298 ± 0.17
GGUCAGCAAUAUUACGGUCC	-3.1 ± 0.39	-1.81 ± 0.37
GGUCAGCAAUAUUACGUCGG	-3.9 ± 0.36	-0.891 ± 0.19
GGUCAGCAAUAUUACGUUUA	-1.23 ± 0.1	-0.167 ± 0.1
GGUGAGCAAUAUUACGAACA	-0.64 ± 0.34	0.394 ± 0.47
GGUGAGCAAUAUUACGAAGU	-2.25 ± 0.23	-1.67 ± 0.35
GGUGAGCAAUAUUACGACAU	-1.27 ± 0.016	-0.567 ± 0.035
GGUGAGCAAUAUUACGACGA	-1.32 ± 0.22	-0.954 ± 0.34
GGUGAGCAAUAUUACGACUA	-0.202 ± 0.17	-0.327 ± 0.17
GGUGAGCAAUAUUACGAGCA	-0.652 ± 0.23	-1.1 ± 0.29
GGUGAGCAAUAUUACGAUAA	-1.22 ± 0.47	
GGUGAGCAAUAUUACGAUUC	-0.904 ± 0.089	0.137 ± 0.11
GGUGAGCAAUAUUACGCACU	-3.35 ± 0.44	-2.9 ± 0.43
GGUGAGCAAUAUUACGGCGC	-0.434 ± 0.13	-0.198 ± 0.19
GGUGAGCAAUAUUACGGGUA	-2.58 ± 0.31	-1.64 ± 0.38
GGUGAGCAAUAUUACGGUAC	-1.95 ± 0.13	-1.4 ± 0.18
GGUGAGCAAUAUUACGGUCA	-1.77 ± 0.32	-1.79 ± 0.38
GGUGAGCAAUAUUACGUCAU	-3.97 ± 0.19	-2.76 ± 0.31
GGUGAGCAAUAUUACGUCUA	-1.91 ± 0.16	-1.42 ± 0.15
GGUGAGCAAUAUUACGUGGC		-2.59 ± 0.33

Sequence	self-splicing fitness (ln) (30 °C)	self-splicing fitness (ln) (37 °C)
GGUGAGCAAUAUUACGUGUA	-2.8 ± 0.25	-3.22 ± 0.3
GGUUAGCAAUAUUACGAAGC	-0.991 ± 0.17	-1.24 ± 0.18
GGUUAGCAAUAUUACGAAUU	0.0573 ± 0.13	-0.482 ± 0.16
GGUUAGCAAUAUUACGACAU	0.0748 ± 0.014	0.332 ± 0.034
GGUUAGCAAUAUUACGACCU	-1.72 ± 0.35	-0.0941 ± 0.33
GGUUAGCAAUAUUACGAGGG	-3.05 ± 0.21	-2.28 ± 0.34
GGUUAGCAAUAUUACGAGUG	-2.59 ± 0.35	-1.39 ± 0.19
GGUUAGCAAUAUUACGCAAA	-1.62 ± 0.39	-2.21 ± 0.31
GGUUAGCAAUAUUACGCCUG	-2.89 ± 0.38	-2.7 ± 0.48
GGUUAGCAAUAUUACGCGCA	1.25 ± 0.28	0.766 ± 0.34
GGUUAGCAAUAUUACGGCUU	-0.26 ± 0.082	1.05 ± 0.096
GGUUAGCAAUAUUACGGUAC	-1.21 ± 0.11	-0.6 ± 0.15
GGUUAGCAAUAUUACGUCAA	-0.285 ± 0.11	-0.43 ± 0.13
GGUUAGCAAUAUUACGUCGA	-1.43 ± 0.14	-0.492 ± 0.14
GGUUAGCAAUAUUACGUGGC	-3.21 ± 0.34	-1.64 ± 0.19
GGUUAGCAAUAUUACGUGUG	-2.43 ± 0.12	-1.56 ± 0.11
GGUUAGCAAUAUUACGUUGA	-2 ± 0.2	-1.54 ± 0.17
GUAAAGCAAUAUUACGAAAA	-1.52 ± 0.15	0.0796 ± 0.28
GUAAAGCAAUAUUACGAAAG	-2.91 ± 0.19	-1.33 ± 0.19
GUAAAGCAAUAUUACGAAGG	-3.13 ± 0.13	-1.92 ± 0.17
GUAAAGCAAUAUUACGAAUA	-1.68 ± 0.093	-0.495 ± 0.15
GUAAAGCAAUAUUACGAGAG	-3.16 ± 0.16	-3.37 ± 0.23
GUAAAGCAAUAUUACGAGCC	-2.51 ± 0.33	-2.56 ± 0.26
GUAAAGCAAUAUUACGAGGU	-3.07 ± 0.13	-1.83 ± 0.24

Sequence	self-splicing fitness (ln) (30 °C)	self-splicing fitness (ln) (37 °C)
GUAAAGCAAUAUUACGAGUC	-2.56 ± 0.15	-1.38 ± 0.19
GUAAAGCAAUAUUACGAUGA	-0.0816 ± 0.064	-0.318 ± 0.068
GUAAAGCAAUAUUACGCAGA	-2.79 ± 0.22	-0.446 ± 0.17
GUAAAGCAAUAUUACGCGAG	-0.869 ± 0.068	-0.158 ± 0.091
GUAAAGCAAUAUUACGCGGC	-2.96 ± 0.21	-0.672 ± 0.18
GUAAAGCAAUAUUACGCUAG	-1.03 ± 0.079	-0.533 ± 0.1
GUAAAGCAAUAUUACGGAAC	-1.56 ± 0.12	-1.57 ± 0.21
GUAAAGCAAUAUUACGGAGA	-3.54 ± 0.28	
GUAAAGCAAUAUUACGGGAU	-1.62 ± 0.082	-0.341 ± 0.11
GUAAAGCAAUAUUACGGGUG	-1.6 ± 0.065	-0.848 ± 0.091
GUAAAGCAAUAUUACGGUCC	-1.23 ± 0.21	-0.634 ± 0.25
GUAAAGCAAUAUUACGGUGC	-2.22 ± 0.083	-0.36 ± 0.083
GUAAAGCAAUAUUACGGUUC	-0.687 ± 0.097	-0.679 ± 0.13
GUAAAGCAAUAUUACGUAAA	-2.08 ± 0.1	-0.853 ± 0.11
GUAAAGCAAUAUUACGUACC	-3.89 ± 0.2	-2.55 ± 0.2
GUAAAGCAAUAUUACGUACU	-1.01 ± 0.076	-0.965 ± 0.13
GUAAAGCAAUAUUACGUCGG	-2.85 ± 0.12	-1.05 ± 0.13
GUAAAGCAAUAUUACGUGGA	-2.51 ± 0.095	-1.38 ± 0.073
GUAAAGCAAUAUUACGUUUU	-2.7 ± 0.076	-1.9 ± 0.1
GUACAGCAAUAUUACGAACC	-1.19 ± 0.14	-0.582 ± 0.18
GUACAGCAAUAUUACGAAUA	-3.26 ± 0.22	-1.67 ± 0.13
GUACAGCAAUAUUACGACUU	-0.754 ± 0.059	-0.179 ± 0.073
GUACAGCAAUAUUACGAUCC	-0.427 ± 0.14	0.81 ± 0.18
GUACAGCAAUAUUACGAUUG	-5.06 ± 0.25	-2.87 ± 0.17
